Results published in patent US6703362 (CYTOGEN, dated 2004).

T1: hPEPT1 receptor domain (human PEPT1, amino acid residues 391-571), His-tag fusion protein (human, UniProt P46059 391-571)
T1 construct: purified under denaturing conditions; also called recombinant hPEPT1; not shown: poly-histidine tag (pET vector) at the NH2-terminal end
T1 sequence: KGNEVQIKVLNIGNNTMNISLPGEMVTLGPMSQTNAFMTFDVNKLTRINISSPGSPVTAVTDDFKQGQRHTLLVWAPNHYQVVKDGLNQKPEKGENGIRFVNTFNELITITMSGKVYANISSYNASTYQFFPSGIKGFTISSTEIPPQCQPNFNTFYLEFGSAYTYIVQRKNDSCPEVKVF

T2: D2H receptor domain (human D2H transporter, amino acid residues 387-685), His-tag fusion protein (human, UniProt Q07837 387-685)
T2 construct: purified under denaturing conditions; also called recombinant D2H; not shown: poly-histidine tag (pET vector) at the NH2-terminal end
T2 sequence: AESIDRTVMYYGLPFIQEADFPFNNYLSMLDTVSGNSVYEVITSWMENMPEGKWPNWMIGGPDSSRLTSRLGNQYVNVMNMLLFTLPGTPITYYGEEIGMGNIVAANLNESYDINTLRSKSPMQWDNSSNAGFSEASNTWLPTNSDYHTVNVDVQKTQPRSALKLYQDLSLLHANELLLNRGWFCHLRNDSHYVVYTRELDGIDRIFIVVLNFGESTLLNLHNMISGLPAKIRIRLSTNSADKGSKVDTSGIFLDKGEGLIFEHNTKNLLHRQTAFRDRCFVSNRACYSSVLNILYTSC

B1: PAX14 (peptide)
peptide: RTFENDGLGVGRSIQKKSDRWYASHNIRSHFASMSPAGKAETVESCLAKPHTENSFTNVWKDDKTLDRYANYEGCLWNATGVVVCTGDETQCYGTWVPIGLAIPENEGGGSEGGGSEGGGSEGGGTKPPEYGDTPIPGYTYINPLDGTYPPGTEQNPANPNPSLEESQPLNTFMFQNNRFRNRQGALTVYTGTVTQGTDPVKTYYQYTPVSSKAMYDAYWNGKFRDCAFHSGFNEDPFVCEYQGQSSDLPQPPVNAGGGSGGGSGGGSEGGGSEGGGSEGGGSEGGGSGGGSGSGDFDYEKMANANKGAMTENADENALQSDAKGKLDSVATDYGAAIDGFIGDVSGLANGNGATGDFAGSNSQMAQVGDGDNSPLMNNFRQYLPSLPQSVECRPFVFSAGKPYEFSIDCDKINLFRGVFAFLLYVATFMYVFSTFANILRNKES
notes: Assayed as M13 phage clone displaying the insert
B2: PAX15 (peptide)
peptide: SYCRVKGGGEGGHTDSNLARSGCGKVARTSRLQHINPRATPPSRAETVESCLAKPHTENSFTNVWKDDKTLDRYANYEGCLWNATGVVVCTGDETQCYGTWVPIGLAIPENEGGGSEGGGSEGGGSEGGGTKPPEYGDTPIPGYTYINPLDGTYPPGTEQNPANPNPSLEESQPLNTFMFQNNRFRNRQGALTVYTGTVTQGTDPVKTYYQYTPVSSKAMYDAYWNGKFRDCAFHSGFNEDPFVCEYQGQSSDLPQPPVNAGGGSGGGSGGGSEGGGSEGGGSEGGGSEGGGSGGGSGSGDFDYEKMANANKGAMTENADENALQSDAKGKLDSVATDYGAAIDGFIGDVSGLANGNGATGDFAGSNSQMAQVGDGDNSPLMNNFRQYLPSLPQSVECRPFVFSAGKPYEFSIDCDKINLFRGVFAFLLYVATFMYVFSTFANILRNKES
notes: as for B1
B3: PAX16 (peptide)
peptide: SWTRWGKHTHGGFVNKSPPGKNATSPYTDAQLPSDQGPPAETVESCLAKPHTENSFTNVWKDDKTLDRYANYEGCLWNATGVVVCTGDETQCYGTWVPIGLAIPENEGGGSEGGGSEGGGSEGGGTKPPEYGDTPIPGYTYINPLDGTYPPGTEQNPANPNPSLEESQPLNTFMFQNNRFRNRQGALTVYTGTVTQGTDPVKTYYQYTPVSSKAMYDAYWNGKFRDCAFHSGFNEDPFVCEYQGQSSDLPQPPVNAGGGSGGGSGGGSEGGGSEGGGSEGGGSEGGGSGGGSGSGDFDYEKMANANKGAMTENADENALQSDAKGKLDSVATDYGAAIDGFIGDVSGLANGNGATGDFAGSNSQMAQVGDGDNSPLMNNFRQYLPSLPQSVECRPFVFSAGKPYEFSIDCDKINLFRGVFAFLLYVATFMYVFSTFANILRNKES
notes: as for B1
B4: S15 (peptide)
peptide: RSGAYESPDGRGGRSYVGGGGGCGNIGRKHNLWGLRTASPACWDAETVESCLAKPHTENSFTNVWKDDKTLDRYANYEGCLWNATGVVVCTGDETQCYGTWVPIGLAIPENEGGGSEGGGSEGGGSEGGGTKPPEYGDTPIPGYTYINPLDGTYPPGTEQNPANPNPSLEESQPLNTFMFQNNRFRNRQGALTVYTGTVTQGTDPVKTYYQYTPVSSKAMYDAYWNGKFRDCAFHSGFNEDPFVCEYQGQSSDLPQPPVNAGGGSGGGSGGGSEGGGSEGGGSEGGGSEGGGSGGGSGSGDFDYEKMANANKGAMTENADENALQSDAKGKLDSVATDYGAAIDGFIGDVSGLANGNGATGDFAGSNSQMAQVGDGDNSPLMNNFRQYLPSLPQSVECRPFVFSAGKPYEFSIDCDKINLFRGVFAFLLYVATFMYVFSTFANILRNKES
notes: as for B1
B5: S21 (peptide)
peptide: SPRSFWPVVSRHESFGISNYLGCGYRTCISGTMTKSSPIYPRHSAETVESCLAKPHTENSFTNVWKDDKTLDRYANYEGCLWNATGVVVCTGDETQCYGTWVPIGLAIPENEGGGSEGGGSEGGGSEGGGTKPPEYGDTPIPGYTYINPLDGTYPPGTEQNPANPNPSLEESQPLNTFMFQNNRFRNRQGALTVYTGTVTQGTDPVKTYYQYTPVSSKAMYDAYWNGKFRDCAFHSGFNEDPFVCEYQGQSSDLPQPPVNAGGGSGGGSGGGSEGGGSEGGGSEGGGSEGGGSGGGSGSGDFDYEKMANANKGAMTENADENALQSDAKGKLDSVATDYGAAIDGFIGDVSGLANGNGATGDFAGSNSQMAQVGDGDNSPLMNNFRQYLPSLPQSVECRPFVFSAGKPYEFSIDCDKINLFRGVFAFLLYVATFMYVFSTFANILRNKES
notes: as for B1
B6: S22 (peptide)
peptide: SSSSDWGGVPGKVVRERFKGRGCGISITSVLTGKPNPCPEPKAAAETVESCLAKPHTENSFTNVWKDDKTLDRYANYEGCLWNATGVVVCTGDETQCYGTWVPIGLAIPENEGGGSEGGGSEGGGSEGGGTKPPEYGDTPIPGYTYINPLDGTYPPGTEQNPANPNPSLEESQPLNTFMFQNNRFRNRQGALTVYTGTVTQGTDPVKTYYQYTPVSSKAMYDAYWNGKFRDCAFHSGFNEDPFVCEYQGQSSDLPQPPVNAGGGSGGGSGGGSEGGGSEGGGSEGGGSEGGGSGGGSGSGDFDYEKMANANKGAMTENADENALQSDAKGKLDSVATDYGAAIDGFIGDVSGLANGNGATGDFAGSNSQMAQVGDGDNSPLMNNFRQYLPSLPQSVECRPFVFSAGKPYEFSIDCDKINLFRGVFAFLLYVATFMYVFSTFANILRNKES
notes: as for B1
B7: DAB3 (peptide)
peptide: RWCGAELCNSVTKKFRPGWRDHANPSTHHRTPPPSQSSPAETVESCLAKPHTENSFTNVWKDDKTLDRYANYEGCLWNATGVVVCTGDETQCYGTWVPIGLAIPENEGGGSEGGGSEGGGSEGGGTKPPEYGDTPIPGYTYINPLDGTYPPGTEQNPANPNPSLEESQPLNTFMFQNNRFRNRQGALTVYTGTVTQGTDPVKTYYQYTPVSSKAMYDAYWNGKFRDCAFHSGFNEDPFVCEYQGQSSDLPQPPVNAGGGSGGGSGGGSEGGGSEGGGSEGGGSEGGGSGGGSGSGDFDYEKMANANKGAMTENADENALQSDAKGKLDSVATDYGAAIDGFIGDVSGLANGNGATGDFAGSNSQMAQVGDGDNSPLMNNFRQYLPSLPQSVECRPFVFSAGKPYEFSIDCDKINLFRGVFAFLLYVATFMYVFSTFANILRNKES
notes: as for B1
B8: DAB18 (peptide)
peptide: RSSANNCEWKSDWMRRACIARYANSSGPARAVDTKAAPAETVESCLAKPHTENSFTNVWKDDKTLDRYANYEGCLWNATGVVVCTGDETQCYGTWVPIGLAIPENEGGGSEGGGSEGGGSEGGGTKPPEYGDTPIPGYTYINPLDGTYPPGTEQNPANPNPSLEESQPLNTFMFQNNRFRNRQGALTVYTGTVTQGTDPVKTYYQYTPVSSKAMYDAYWNGKFRDCAFHSGFNEDPFVCEYQGQSSDLPQPPVNAGGGSGGGSGGGSEGGGSEGGGSEGGGSEGGGSGGGSGSGDFDYEKMANANKGAMTENADENALQSDAKGKLDSVATDYGAAIDGFIGDVSGLANGNGATGDFAGSNSQMAQVGDGDNSPLMNNFRQYLPSLPQSVECRPFVFSAGKPYEFSIDCDKINLFRGVFAFLLYVATFMYVFSTFANILRNKES
notes: as for B1
B9: DAB7 (peptide)
peptide: RWCGADDPCGASRWRGGNSLFGCGLRCSAAQSTPSGRIHSTSTSAETVESCLAKPHTENSFTNVWKDDKTLDRYANYEGCLWNATGVVVCTGDETQCYGTWVPIGLAIPENEGGGSEGGGSEGGGSEGGGTKPPEYGDTPIPGYTYINPLDGTYPPGTEQNPANPNPSLEESQPLNTFMFQNNRFRNRQGALTVYTGTVTQGTDPVKTYYQYTPVSSKAMYDAYWNGKFRDCAFHSGFNEDPFVCEYQGQSSDLPQPPVNAGGGSGGGSGGGSEGGGSEGGGSEGGGSEGGGSGGGSGSGDFDYEKMANANKGAMTENADENALQSDAKGKLDSVATDYGAAIDGFIGDVSGLANGNGATGDFAGSNSQMAQVGDGDNSPLMNNFRQYLPSLPQSVECRPFVFSAGKPYEFSIDCDKINLFRGVFAFLLYVATFMYVFSTFANILRNKES
notes: as for B1
B10: DAB24 (peptide)
peptide: SKWSWSSRWGSPQDKVEKTRAGCGGSPSSTNCHPYTFAPPPQAGAETVESCLAKPHTENSFTNVWKDDKTLDRYANYEGCLWNATGVVVCTGDETQCYGTWVPIGLAIPENEGGGSEGGGSEGGGSEGGGTKPPEYGDTPIPGYTYINPLDGTYPPGTEQNPANPNPSLEESQPLNTFMFQNNRFRNRQGALTVYTGTVTQGTDPVKTYYQYTPVSSKAMYDAYWNGKFRDCAFHSGFNEDPFVCEYQGQSSDLPQPPVNAGGGSGGGSGGGSEGGGSEGGGSEGGGSEGGGSGGGSGSGDFDYEKMANANKGAMTENADENALQSDAKGKLDSVATDYGAAIDGFIGDVSGLANGNGATGDFAGSNSQMAQVGDGDNSPLMNNFRQYLPSLPQSVECRPFVFSAGKPYEFSIDCDKINLFRGVFAFLLYVATFMYVFSTFANILRNKES
notes: as for B1

target: T1, hPEPT1 receptor domain (human PEPT1, …); assay: phage ELISA, plate coated with hPEPT1 domain
Method: (§1) 6.6. Receptor ELISA Procedure 96 well plates were coated overnight with GIT receptor, BSA and, optionally, IDE (insulin degrading enzyme, an irrelevant His-fusion protein)or hTF. The plates were blocked for one hour with 0.5% BSA-PBS. After clarification, the amplified phage were diluted 1:100 in […] plus 0.05% Tween 20 in PBS and added to the plates. Following incubation of the plates on a rotator for 1 to 2 hours, the plates were washed 5 times with 1% BSA plus 0.05% Tween 20 in PBS. […] After the plates were washed 5 times, as described above, TMB substrate was added to the wells. The plates were read at 650 nm absorbance.

| Binder | OD [OD] |
| --- | --- |
| B1 | 1.1 |
| B2 | 0.301 |
| B3 | 0.648 |

target: T3, hSI receptor domain (human sucrase-isomaltase complex, amino acid residues 272-667), His-tag fusion protein (human, UniProt P14410 272-667); assay: phage ELISA, plate coated with hSI domain
T3 construct: also called hS1; recombinant hSI; not shown: poly-histidine tag (pET vector) at the NH2-terminal end
Method: as §1

T3 sequence (P14410 272-667, one chain of several): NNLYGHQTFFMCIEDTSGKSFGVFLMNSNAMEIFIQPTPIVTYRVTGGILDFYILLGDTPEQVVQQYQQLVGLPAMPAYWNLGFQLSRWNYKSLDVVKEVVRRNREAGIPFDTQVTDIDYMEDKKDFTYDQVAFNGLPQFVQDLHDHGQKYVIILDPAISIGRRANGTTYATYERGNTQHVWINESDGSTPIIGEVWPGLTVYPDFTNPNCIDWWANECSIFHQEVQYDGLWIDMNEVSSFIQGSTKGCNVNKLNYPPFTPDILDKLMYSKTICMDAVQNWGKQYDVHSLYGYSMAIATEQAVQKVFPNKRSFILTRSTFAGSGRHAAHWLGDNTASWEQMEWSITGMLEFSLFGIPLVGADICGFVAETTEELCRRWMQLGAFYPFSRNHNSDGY

| Binder | OD [OD] |
| --- | --- |
| B4 | 0.478 |
| B5 | 0.845 |
| B6 | 0.399 |

target: T2, D2H receptor domain (human D2H …); assay: phage ELISA, plate coated with D2H domain
Method: as §1

| Binder | OD [OD] |
| --- | --- |
| B7 | 0.406 |
| B8 | 0.467 |
| B9 | 0.702 |
| B10 | 1.8 |
